From patent US20080274967

How the values were obtained:
[1] = target: T1, Recombinant human pigment epithelium derived factor (rPEDF)
T1 chain: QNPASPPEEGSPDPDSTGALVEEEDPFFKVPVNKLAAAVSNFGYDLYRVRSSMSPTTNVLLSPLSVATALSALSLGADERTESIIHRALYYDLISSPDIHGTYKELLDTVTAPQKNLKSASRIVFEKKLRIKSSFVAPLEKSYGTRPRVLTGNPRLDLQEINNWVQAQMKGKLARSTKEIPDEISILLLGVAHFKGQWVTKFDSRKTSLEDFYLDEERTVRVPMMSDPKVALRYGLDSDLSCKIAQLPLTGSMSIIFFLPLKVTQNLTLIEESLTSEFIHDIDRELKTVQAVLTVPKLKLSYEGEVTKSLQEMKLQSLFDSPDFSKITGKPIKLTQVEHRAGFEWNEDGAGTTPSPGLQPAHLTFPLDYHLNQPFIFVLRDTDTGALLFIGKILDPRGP

PEDF S227E variant = target: T2, PEDF S227E variant
T2 chain: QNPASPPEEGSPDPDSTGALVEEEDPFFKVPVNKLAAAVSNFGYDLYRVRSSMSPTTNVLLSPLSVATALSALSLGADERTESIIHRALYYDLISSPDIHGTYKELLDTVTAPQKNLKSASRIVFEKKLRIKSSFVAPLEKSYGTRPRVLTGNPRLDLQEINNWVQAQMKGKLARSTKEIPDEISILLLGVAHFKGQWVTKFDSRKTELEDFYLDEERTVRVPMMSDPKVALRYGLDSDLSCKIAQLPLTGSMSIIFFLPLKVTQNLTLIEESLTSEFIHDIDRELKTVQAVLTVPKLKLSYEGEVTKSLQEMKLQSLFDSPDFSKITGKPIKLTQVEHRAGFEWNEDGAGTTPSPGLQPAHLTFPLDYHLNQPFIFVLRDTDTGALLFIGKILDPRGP

[2] = target: T3, PEDF AAE variant (S24,114A, 227E)
T3 chain: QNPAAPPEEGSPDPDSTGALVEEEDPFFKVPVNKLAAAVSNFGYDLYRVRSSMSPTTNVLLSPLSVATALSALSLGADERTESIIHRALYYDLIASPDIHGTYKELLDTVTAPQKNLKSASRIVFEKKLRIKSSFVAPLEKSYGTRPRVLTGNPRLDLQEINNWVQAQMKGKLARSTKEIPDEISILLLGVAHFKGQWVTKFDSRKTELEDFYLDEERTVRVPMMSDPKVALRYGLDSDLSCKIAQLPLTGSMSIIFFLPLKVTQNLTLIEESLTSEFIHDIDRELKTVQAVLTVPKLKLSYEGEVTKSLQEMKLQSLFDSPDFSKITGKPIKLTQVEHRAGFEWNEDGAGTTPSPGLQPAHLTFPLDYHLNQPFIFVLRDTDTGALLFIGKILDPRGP

PEDF S227A variant = target: T4, PEDF S227A variant
T4 chain: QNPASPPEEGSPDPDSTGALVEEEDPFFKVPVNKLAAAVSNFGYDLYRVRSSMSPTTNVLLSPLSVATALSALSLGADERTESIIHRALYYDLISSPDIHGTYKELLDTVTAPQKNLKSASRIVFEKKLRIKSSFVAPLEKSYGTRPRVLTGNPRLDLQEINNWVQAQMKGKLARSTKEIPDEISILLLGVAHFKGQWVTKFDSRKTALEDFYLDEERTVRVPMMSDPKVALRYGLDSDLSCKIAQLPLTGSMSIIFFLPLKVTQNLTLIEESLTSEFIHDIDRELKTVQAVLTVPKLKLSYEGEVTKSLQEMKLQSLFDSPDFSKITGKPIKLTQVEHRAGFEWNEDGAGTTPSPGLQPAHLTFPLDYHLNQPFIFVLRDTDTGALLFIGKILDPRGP

[3] = target: T5, PEDF EEA variant (S24,114E, 227A)
T5 chain: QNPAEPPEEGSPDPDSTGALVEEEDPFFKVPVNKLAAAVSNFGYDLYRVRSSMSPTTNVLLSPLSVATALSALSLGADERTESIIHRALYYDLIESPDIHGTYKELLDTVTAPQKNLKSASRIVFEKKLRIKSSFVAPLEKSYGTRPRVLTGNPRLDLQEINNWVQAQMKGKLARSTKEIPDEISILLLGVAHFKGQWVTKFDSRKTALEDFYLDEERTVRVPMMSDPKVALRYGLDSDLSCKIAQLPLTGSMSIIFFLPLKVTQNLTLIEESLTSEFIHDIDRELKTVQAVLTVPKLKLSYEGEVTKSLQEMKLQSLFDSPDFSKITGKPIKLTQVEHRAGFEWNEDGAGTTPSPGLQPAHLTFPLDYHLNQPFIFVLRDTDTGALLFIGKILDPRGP

[4] = target: T6, PEDF EEE variant (S24,114, 227E)
T6 chain: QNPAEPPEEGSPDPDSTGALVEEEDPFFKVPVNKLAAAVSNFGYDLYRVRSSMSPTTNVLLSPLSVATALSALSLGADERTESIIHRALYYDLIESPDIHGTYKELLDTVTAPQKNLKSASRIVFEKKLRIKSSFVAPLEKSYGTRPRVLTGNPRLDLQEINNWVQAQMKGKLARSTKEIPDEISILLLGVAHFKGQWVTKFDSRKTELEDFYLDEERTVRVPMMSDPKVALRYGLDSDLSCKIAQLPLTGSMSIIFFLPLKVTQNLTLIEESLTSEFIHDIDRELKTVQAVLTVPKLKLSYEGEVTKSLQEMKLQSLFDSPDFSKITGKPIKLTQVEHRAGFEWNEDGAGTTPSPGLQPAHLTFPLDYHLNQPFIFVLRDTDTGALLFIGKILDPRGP

[5] = target: T7, PEDF AAA variant (S24,114, 227A)
T7 chain: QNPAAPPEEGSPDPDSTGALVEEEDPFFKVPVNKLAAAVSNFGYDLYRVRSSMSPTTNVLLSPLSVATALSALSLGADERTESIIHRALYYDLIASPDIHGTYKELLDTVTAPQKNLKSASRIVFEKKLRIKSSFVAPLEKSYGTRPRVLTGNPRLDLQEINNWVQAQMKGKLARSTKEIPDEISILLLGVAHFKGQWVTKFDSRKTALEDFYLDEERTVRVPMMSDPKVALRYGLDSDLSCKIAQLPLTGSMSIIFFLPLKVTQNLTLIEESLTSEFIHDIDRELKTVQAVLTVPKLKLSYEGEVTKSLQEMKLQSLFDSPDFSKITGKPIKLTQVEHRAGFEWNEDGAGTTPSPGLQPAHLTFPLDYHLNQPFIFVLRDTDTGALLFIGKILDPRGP

[6] = target: T8, PEDF purified from human plasma (plPEDF)
T8 chain: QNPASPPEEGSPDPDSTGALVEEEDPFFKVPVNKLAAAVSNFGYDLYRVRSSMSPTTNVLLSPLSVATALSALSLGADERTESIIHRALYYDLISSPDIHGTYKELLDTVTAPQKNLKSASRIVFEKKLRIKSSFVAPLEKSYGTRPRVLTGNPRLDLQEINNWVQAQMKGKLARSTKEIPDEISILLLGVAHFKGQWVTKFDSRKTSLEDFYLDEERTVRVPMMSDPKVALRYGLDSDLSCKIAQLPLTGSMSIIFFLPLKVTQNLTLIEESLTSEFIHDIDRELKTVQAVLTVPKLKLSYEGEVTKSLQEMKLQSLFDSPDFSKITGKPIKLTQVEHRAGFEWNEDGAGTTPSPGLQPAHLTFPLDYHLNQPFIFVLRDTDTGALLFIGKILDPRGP

B1: Recombinant human CK2 (casein kinase CK2) (protein)
chain: MSGPVPSRARVYTDVNTHRPREYWDYESHVVEWGNQDDYQLVRKLGRGKYSEVFEAINITNNEKVVVKILKPVKKKKIKREIKILENLRGGPNIITLADIVKDPVSRTPALVFEHVNNTDFKQLYQTLTDYDIRFYMYEILKALDYCHSMGIMHRDVKPHNVMIDHEHRKLRLIDWGLAEFYHPGQEYNVRVASRYFKGPELLVDYQMYDYSLDMWSLGCMLASMIFRKEPFFHGHDNYDQLVRIAKVLGTEDLYDYIDKYNIELDPRFNDILGRHSRKRWERFVHSENQHLVSPEALDFLDKLLRYDHQSRLTAREAMEHPYFYTVVKDQARMGSSSMPGGSTPVSSANMMSGISSVPTPSPLGPLAGSPVIAAANPLGMPVPAAAGAQQ
in vitro phosphorylation by CK2 ([γ32P]-ATP, SDS-PAGE, autoradiography) [1]: the phosphorylation of the plPEDF by CK2 was significantly lower than CK2 phosphorylation of the rPEDF
in vitro phosphorylation by CK2 ([γ32P]-ATP, SDS-PAGE, autoradiography) (PEDF S227E variant): both readily phosphorylated by CK2
in vitro phosphorylation by CK2 [2]: The AAE and the AAA variants almost completely abolished CK2 phosphorylation
in vitro phosphorylation by CK2 ([γ32P]-ATP, SDS-PAGE, autoradiography) (PEDF S227A variant): both readily phosphorylated by CK2
in vitro phosphorylation by CK2 [3]: the triple mutants EEE and EEA were readily phosphorylated by CK2
in vitro phosphorylation by CK2 [4]: the triple mutants EEE and EEA were readily phosphorylated by CK2
in vitro phosphorylation by CK2 [5]: The AAE and the AAA variants almost completely abolished CK2 phosphorylation
in vitro phosphorylation by CK2 ([γ32P]-ATP, SDS-PAGE, autoradiography) [6]: the phosphorylation of the plPEDF by CK2 was significantly lower than CK2 phosphorylation of the rPEDF
